Experiments:
[1] = target: carboxy-terminal domain of Saccharomyces cerevisiae RNA polymerase II subunit RPB1 (yCTD) (Saccharomyces cerevisiae); assay: dynamic light scattering + microscopy; tag-free CTD alone, no crowding agents; 25 mM HEPES, 1.0 mM TCEP, pH 7.4 (also pH 6.2), 50-1000 mM NaCl, rising temperature; self-coacervation into droplets
[2] = target: carboxy-terminal domain of human RNA polymerase II subunit RPB1 (hCTD) (human) (UniProt P24928); assay: as above

| minimal concentration of droplet formation [1] [µM] | minimal concentration of droplet formation [2] [µM] | Substance |
| --- | --- | --- |
| 100 | – | carboxy-terminal domain of Saccharomyces cerevisiae RNA polymerase II subunit RPB1 (yCTD) (domain or fragment) |
| – | 25 | carboxy-terminal domain of human RNA polymerase II subunit RPB1 (hCTD) (from UniProt P24928 1593-1970) (domain or fragment) |

— paper PMC10519987
